Reference: article PMC4141763, “Reciprocal Activating Crosstalk between c-Met and Caveolin 1 Promotes Invasive Phenotype in Hepatocellular Carcinoma” (PLoS ONE, 2014)

Target: T1, c-Met, the receptor for Hepatocyte Growth Factor (HGF) (human (endogenous in SNU-449 and …, UniProt P08581 25-1390))
T1 construct: precipitated with agarose-conjugated anti-c-Met antibody sc-161 AC; Endogenous receptor in a lysate; the co-IP blot detects total c-Met; also called c-Met Tyrosine Kinase; source: endogenous, Mahlavu whole cell lysate
T1 sequence (P08581 25-1390): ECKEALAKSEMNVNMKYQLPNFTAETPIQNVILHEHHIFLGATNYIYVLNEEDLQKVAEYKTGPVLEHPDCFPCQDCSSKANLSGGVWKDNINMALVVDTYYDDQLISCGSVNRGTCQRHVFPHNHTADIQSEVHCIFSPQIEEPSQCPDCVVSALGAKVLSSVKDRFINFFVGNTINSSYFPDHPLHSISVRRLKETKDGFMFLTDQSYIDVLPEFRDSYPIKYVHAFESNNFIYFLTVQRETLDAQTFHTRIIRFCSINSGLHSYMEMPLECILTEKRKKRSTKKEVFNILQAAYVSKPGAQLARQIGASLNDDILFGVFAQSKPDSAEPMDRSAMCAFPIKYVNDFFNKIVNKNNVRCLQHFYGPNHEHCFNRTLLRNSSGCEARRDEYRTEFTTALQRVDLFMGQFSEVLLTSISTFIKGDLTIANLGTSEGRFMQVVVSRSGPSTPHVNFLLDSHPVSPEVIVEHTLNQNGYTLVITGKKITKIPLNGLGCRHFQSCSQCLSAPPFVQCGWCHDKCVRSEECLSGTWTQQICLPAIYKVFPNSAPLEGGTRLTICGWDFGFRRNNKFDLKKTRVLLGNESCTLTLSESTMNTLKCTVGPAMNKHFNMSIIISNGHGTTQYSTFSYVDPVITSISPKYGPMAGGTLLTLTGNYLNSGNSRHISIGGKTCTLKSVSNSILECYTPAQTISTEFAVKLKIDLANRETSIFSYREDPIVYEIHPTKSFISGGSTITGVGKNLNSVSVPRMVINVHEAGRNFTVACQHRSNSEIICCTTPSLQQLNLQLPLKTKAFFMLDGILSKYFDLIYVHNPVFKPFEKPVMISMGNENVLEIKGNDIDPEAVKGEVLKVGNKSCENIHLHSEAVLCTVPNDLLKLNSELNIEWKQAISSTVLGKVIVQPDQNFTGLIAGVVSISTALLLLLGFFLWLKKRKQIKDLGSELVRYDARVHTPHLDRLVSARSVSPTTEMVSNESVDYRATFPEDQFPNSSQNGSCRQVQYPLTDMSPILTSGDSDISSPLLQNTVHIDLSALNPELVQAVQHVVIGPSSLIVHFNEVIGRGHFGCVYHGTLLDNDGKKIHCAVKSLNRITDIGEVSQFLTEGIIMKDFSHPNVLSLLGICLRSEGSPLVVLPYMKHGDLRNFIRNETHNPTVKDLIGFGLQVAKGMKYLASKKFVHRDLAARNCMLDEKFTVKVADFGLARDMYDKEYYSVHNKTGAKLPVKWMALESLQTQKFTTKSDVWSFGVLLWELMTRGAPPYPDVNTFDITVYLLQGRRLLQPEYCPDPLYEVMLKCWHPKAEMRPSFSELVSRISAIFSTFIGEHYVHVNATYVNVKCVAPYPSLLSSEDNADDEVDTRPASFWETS
Assay: co-IP; SNU-449 whole cell lysates (modified NP-40 buffer) precipitated with agarose-conjugated anti-c-Met antibody (sc-161 AC), blotted for CAV1 and c-Met; serum-starved cells untreated or exposed to HGF (40 ng/mL) for 15, 30 and 60 min; IgG as IP control
Conditions: partners not purified

B1: Caveolin 1 (CAV1) (natural protein, UniProt Q03135 1-178, looked up)
chain: MSGGKYVDSEGHLYTVPIREQGNIYKPNNKAMADELSEKQVYDAHTKEIDLVNRDPKHLNDDVVKIDFEDVIAEPEGTHSFDGIWKASFTTFTVTKYWFYRLLSALFGIPMALIWGIYFAILSFLHIWAVVPCIKSFLIEIQCISRVYSIYVHTVCDPLFEAVGKIFSNVRINLQKEI
notes: detected by Western blot with an antibody to CAV1; Endogenous protein; the co-IP blot detects total CAV1; source: endogenous, Mahlavu whole cell lysate
- fold increase in the amount co-immunoprecipitated upon HGF stimulation, against no HGF: ≥ 3 fold
